{"source": "paper PMC12221982", "about": "“The structure of the complete extracellular bacterial flagellum reveals the mechanism of flagellin incorporation” (Nature Microbiology, 2025)", "binders": {"B1": {"name": "FlgE hook protein (S. enterica) (natural protein)", "chain": "MSFSQAVSGLNAAATNLDVIGNNIANSATYGFKSGTASFADMFAGSKVGLGVKVAGITQDFTDGTTTNTGRGLDVAISQNGFFRLVDSNGSVFYSRNGQFKLDENRNLVNMQGMQLTGYPATGTPPTIQQGANPAPITIPNTLMAAKSTTTASMQINLNSTDPVPSKTPFSVSDADSYNKKGTVTVYDSQGNAHDMNVYFVKTKDNEWAVYTHDSSDPAATAPTTASTTLKFNENGILESGGTVNITTGTINGATAATFSLSFLNSMQQNTGANNIVATNQNGYKPGDLVSYQINNDGTVVGNYSNEQEQVLGQIVLANFANNEGLASQGDNVWAATQASGVALLGTAGSGNFGKLTNGALEASNVDLSKELVNMIVAQRNYQSNAQTIKTQDQILNTLVNLR", "notes": "FlgE, flagellar hook protein of Salmonella enterica subsp. enterica serovar Typhimurium LT2; […]; There are 13 copies in the HFJ model; source: endogenous, S. enterica strain EM16009; part of purified short flagella"}, "B2": {"name": "FliD filament cap protein (S. enterica) (natural protein)", "chain": "MASISSLGVGSNLPLDQLLTDLTKNEKGRLTPITKQQSANSAKLTAYGTLKSALEKFQTANTALNKADLFKSTVASSTTEDLKVSTTAGAAAGTYKINVTQLAAAQSLATKTTFATTKEQLGDTSVTSRTIKIEQPGRKEPLEIKLDKGDTSMEAIRDAINDADSGIAASIVKVKENEFQLVLTANSGTDNTMKITVEGDTKLNDLLAYDSTTNTGNMQELVKAENAKLNVNGIDIERQSNTVTDAPQGITLTLTKKVTDATVTVTKDDTKAKEAIKSWVDAYNSLVDTFSSLTKYTAVEPGEEASDKNGALLGDSVVRTIQTGIRAQFANSGSNSAFKTMAEIGITQDGTSGKLKIDDDKLTKVLKDNTAAARELLVGDGKETGITTKIATEVKSYLADDGIIDNAQDNVNATLKSLTKQYLSVSNSIDETVARYKAQFTQLDTMMSKLNNTSSYLTQQFTAMNKS", "notes": "FliD, flagellar filament cap protein of Salmonella enterica subsp. enterica serovar Typhimurium LT2; domains D0 to D3; […]; Five subunits form the pentameric cap at the distal end of the filament; also called FliD cap; filament cap complex; source: endogenous, S. enterica strain EM16009; part of purified short flagella (DDM lysis, ultracentrifugation)"}, "B3": {"name": "FlgL hook-filament junction protein (C. jejuni) (natural protein)", "chain": "MRITNKLNFTNSVNNSMGGQSALYQISQQLASGLKIQNSYEDASTYIDNTRLEYEIKTLEQVKESTSRAQEMTQNSMKALQDMVKLLEDFKVKVTQAASDSNSQTSREAIAKELERIKESIVQLANTSVNGQYLFAGSQVANKPFDSNGNYYGDKNNINVVTGAGTESPYNIPGWDLFFKADGDYKKQISTNVSFTDNRWDLNKDPDKTKYLTGDSKWQQLIGQGYVKDNSLDADKDFEYDDSKLDFPPTTLYVQGTKPDGTSFKSAVLVKPEDTLEDVMENIGALYGNTPNNKVVEVSMNDSGQIQITDLKQGNNKLDFHAVAFTPQADTKDELKNIIEAANQEGISMNEVTNRVMQAATAAPSNGDITKLNNPVTVTINNQQFTIDLKQTDFIKSKMTDTDGNAANGADYDNVYFEKNGNTVYGNVSQVIKGSNAYATDSTKLSEVMAGDSLNGTTLNLKVNSKGGNSYDVTINLQTSTVSYPDPNNPGQTISFPIMHTNPATGNSGVVTGSNDITYGQINDIIGMFAADKIPTTTIQANNGQINNADYTQIQQLMKDSQATVDVSMDYKGRISVTDKLSSGTNIEISLSDSQSGQFPAPPFTTTSTVQNGPNFSFSANNSLTIDEPNVDIIKDLDSMIDAVLKGNMRADSESENPRNTGMQGALERLDHLADHVSKLNTTMGAYHNTIEGVNTRTSFLSVNVQSIKSNVIDVDYGEAMMNLMQVQLAYQASLKASTTISQLSLLNYM", "notes": "has a bulky D2 domain; model built from an AlphaFold model; Eleven subunits form the distal layer of the HFJ; also called C. jejuni FlgL; source: endogenous, C. jejuni ΔflhG ΔflaAB minicells, imaged in situ"}, "B4": {"name": "FlgL hook-filament junction protein (S. enterica) (natural protein)", "chain": "MRISTQMMYEQNMSGITNSQAEWMKLGEQMSTGKRVTNPSDDPIAASQAVVLSQAQAQNSQYALARTFATQKVSLEESVLSQVTTAIQTAQEKIVYAGNGTLSDDDRASLATDLQGIRDQLMNLANSTDGNGRYIFAGYKTEAAPFDQATGGYHGGEKSVTQQVDSARTMVIGHTGAQIFNSITSNAVPEPDGSDSEKNLFVMLDTAIAALKTPVEGNNVEKEKAAAAIDKTNRGLKNSLNNVLTVRAELGTQLSELSTLDSLGSDRALGQKLQMSNLVDVDWNSVISSYVMQQAALQASYKTFTDMQGMSLFQLNR", "notes": "FlgL, hook-filament junction protein (distal layer) of Salmonella enterica subsp. enterica serovar Typhimurium LT2; […]; Eleven subunits form the distal layer of the hook-filament junction; also called HFJ; FlgKL; source: endogenous, S. enterica strain EM16009; part of purified short flagella"}, "B5": {"name": "FliD filament cap protein (C. jejuni) (natural protein)", "chain": "MAFGSLSSLGFGSGVLTQDTIDKLKEAEQKARIDPYTKKIEENTTKQKDLTEIKTKLLSFQTAVSSLADATVFAKRKVVGSISDNPPASLTVNSGVALQSMNINVTQLAQKDVYQSKGLANDGGFVNAQLNGTADLTFFSNGKEYTVTVDKNTTYRDLADKINEASGGEIVAKIVNTGEKGTPYRLTLTSKETGEDSAISFYAGKKDSNGKYQKDINAEKIFDDLGWGLDVSASIDPDKDKKGYGIKDASLHIQTAQNAEFTLDGIKMFRSSNTVTDLGVGMTLTLNKTGEINFDVQQDFEGVTKAMQDLVDAYNDLVTNLNAATDYNSETGTKGTLQGISEVNSIRSSILADLFDSQVVDGTTEDANGNKVNTKVMLSMQDFGLSLNDAGTLSFDSSKFEQKVKEDPDSTESFFSNITKYEDINHTGEVIKTGSLSKYLNSNGGNTNGLEFKPGDFTIVFNNQTYDLSKNSDGTNFKLTGKTEEELLQNLANHINSKGIEGLKVKVESYNQNNVTGFRLNFSGDGSSDFSIKGDANILKELGLSDVNITSKPIEGKGIFSKLKATLQEMTGKDGSITKYDESLTNDIKSLNTSKDSTQAMIDTRYDTMANQWLQYESILNKLNQQLNTVTNMINAANNSNN", "notes": "has an additional domain D4; model built from an AlphaFold model; Five subunits form the pentameric cap on the HFJ; also called C. jejuni FliD; FliD cap of C. jejuni; source: endogenous, C. jejuni ΔflhG ΔflaAB minicells, imaged in situ"}, "B6": {"name": "FlgK hook-filament junction protein (C. jejuni) (natural protein)", "chain": "MGIFGTLYTGVTGLKASEVQIATTGNNISNANATFYTRQRVVQTTNGYITTGGVQVGTGTAVESIVRLHDEYSYYKLKGASTQLEYTKYMASTLQEIAQRFPDLQNTGILQDLENYNKAWNDFASNPNENATKIALVKASQTLTESVNNTFATLDKIQKKVNDDIKNTVDEINRIGEEIATINKQIYGQEALPTEHANELRDRRDELELTLSKLVSAVASKNEINQDNRLDTTITDPGHQYNLSIEGFSIVDGINFHPLKLDYDDKNKSYSIYYETPDEKVRDLTAKISGGQLGAQLDLRGRNYSKSEGKYEDGIIQGYMDSLDTFAKTMINETNNLYASSAKSSVTSDYLSGLKGDIPLVNYDRTIQPGSFDIVIYDDKGDKKLTKTITIDVNTTMNDIMRQINANTDDNDNKNSNDDVDDHINASFSYDAKTGDGLFQINAKSGFKVAIEDKGTNFAGAFSIGGFFSGTDASDMKVKDSILNDPSTVRASSNGVDSGNDMANKIIQLQYKKVNFYNEDGTIDNLTMEEYYRKLTGKIASDGENNNVVNSSNETLYNSVYSEYQSKSGVNTNEELAALIQYQSSYGAAAKIVSTVDQMLDTLLGLKS", "notes": "model built from an AlphaFold model; Eleven subunits form the proximal layer of the HFJ; also called C. jejuni FlgK; source: endogenous, C. jejuni ΔflhG ΔflaAB minicells, imaged in situ"}, "B7": {"name": "FlgK hook-filament junction protein (S. enterica) (natural protein)", "chain": "MSSLINHAMSGLNAAQAALNTVSNNINNYNVAGYTRQTTILAQANSTLGAGGWIGNGVYVSGVQREYDAFITNQLRGAQNQSSGLTTRYEQMSKIDNLLADKSSSLSGSLQSFFTSLQTLVSNAEDPAARQALIGKAEGLVNQFKTTDQYLRDQDKQVNIAIGSSVAQINNYAKQIANLNDQISRMTGVGAGASPNDLLDQRDQLVSELNKIVGVEVSVQDGGTYNLTMANGYTLVQGSTARQLAAVPSSADPTRTTVAYVDEAAGNIEIPEKLLNTGSLGGLLTFRSQDLDQTRNTLGQLALAFADAFNAQHTKGYDADGNKGKDFFSIGSPVVYSNSNNADKTVSLTAKVVDSTKVQATDYKIVFDGTDWQVTRTADNTTFTATKDADGKLEIDGLKVTVGTGAQKNDSFLLKPVSNAIVDMNVKVTNEAEIAMASESKLDPDVDTGDSDNRNGQALLDLQNSNVVGGNKTFNDAYATLVSDVGNKTSTLKTSSTTQANVVKQLYKQQQSVSGVNLDEEYGNLQRYQQYYLANAQVLQTANALFDALLNIR", "notes": "FlgK, hook-filament junction protein (proximal layer) of Salmonella enterica subsp. enterica serovar Typhimurium LT2; […]; Eleven subunits form the proximal layer of the hook-filament junction; also called HFJ; FlgKL; source: endogenous, S. enterica strain EM16009; part of purified short flagella"}}, "key": {"[1]": {"biological_target": "the molecule itself", "assay": "cryo-EM structure; single-particle cryo-EM of the same purified short flagella of S. enterica EM16009; hook-filament junction map at 2.9 Å; model of 13 FlgE, 11 FlgK, 11 FlgL and 14 FliC"}, "[2]": {"biological_target": "the molecule itself", "assay": "cryo-EM structure; single-particle cryo-EM of purified short flagella of S. enterica EM16009 (buffer B: 10 mM Tris pH 8, 5 mM EDTA, 0.01% DDM); cap-filament map at 3.7 Å; model of 5 FliD and 17 FliC"}, "[3]": {"biological_target": "T1, FliC flagellin (S. enterica) (S. enterica subsp. enterica serovar …, UniProt P06179 1-495)", "T1 construct": "FliC, phase 1 flagellin of Salmonella enterica subsp. enterica serovar Typhimurium LT2; domains D0 to D3; […]; There are 17 copies in the cap model and 14 in the HFJ model; also called filament; source: S. enterica strain EM16009, chromosomal fliC under the inducible PtetA promoter (30 min AnTc); part of purified short flagella", "T1 sequence (P06179 whole entry)": "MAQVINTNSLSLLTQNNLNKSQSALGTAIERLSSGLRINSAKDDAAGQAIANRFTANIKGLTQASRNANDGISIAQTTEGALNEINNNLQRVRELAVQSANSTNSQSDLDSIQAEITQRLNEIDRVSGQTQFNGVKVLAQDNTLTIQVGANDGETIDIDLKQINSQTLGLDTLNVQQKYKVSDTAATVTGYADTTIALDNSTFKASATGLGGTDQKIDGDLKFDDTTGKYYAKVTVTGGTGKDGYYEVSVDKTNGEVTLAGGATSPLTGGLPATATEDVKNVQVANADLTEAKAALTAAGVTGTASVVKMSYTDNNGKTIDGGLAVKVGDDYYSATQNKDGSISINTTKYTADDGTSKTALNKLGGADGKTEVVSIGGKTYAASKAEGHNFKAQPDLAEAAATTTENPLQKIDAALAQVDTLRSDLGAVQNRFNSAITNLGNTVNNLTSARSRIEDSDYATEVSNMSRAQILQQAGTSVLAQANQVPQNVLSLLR", "assay": "cryo-EM structure; single-particle cryo-EM of purified short flagella of S. enterica EM16009 (buffer B: 10 mM Tris pH 8, 5 mM EDTA, 0.01% DDM); cap-filament map at 3.7 Å; model of 5 FliD and 17 FliC", "details": "both partners purified"}, "[4]": {"biological_target": "the molecule itself", "assay": "cryo-EM structure; single-particle cryo-EM of flagellar hook tips on C. jejuni ΔflhG ΔflaAB minicells (no filament); cap-HFJ map at 6.5 Å; model of 11 FlgK, 11 FlgL and 5 FliD fitted as rigid bodies and refined"}, "[5]": {"biological_target": "T1, FliC flagellin (S. enterica)", "assay": "cryo-EM structure; single-particle cryo-EM of the same purified short flagella of S. enterica EM16009; hook-filament junction map at 2.9 Å; model of 13 FlgE, 11 FlgK, 11 FlgL and 14 FliC", "details": "both partners purified"}}, "data": [{"binder": "B1", "values": [{"measurement": "binding result", "setting": "[1]", "result": "binds"}]}, {"binder": "B2", "values": [{"measurement": "stoichiometry N", "setting": "[2]", "result": 5, "unit": "subunits"}, {"measurement": "binding result", "setting": "[3]", "result": "binds"}]}, {"binder": "B3", "values": [{"measurement": "stoichiometry N", "setting": "[4]", "result": 11, "unit": "subunits"}]}, {"binder": "B4", "values": [{"measurement": "stoichiometry N", "setting": "[1]", "result": 11, "unit": "subunits"}, {"measurement": "binding result", "setting": "[5]", "result": "binds"}]}, {"binder": "B5", "values": [{"measurement": "stoichiometry N", "setting": "[4]", "result": 5, "unit": "subunits"}]}, {"binder": "B6", "values": [{"measurement": "stoichiometry N", "setting": "[4]", "result": 11, "unit": "subunits"}]}, {"binder": "B7", "values": [{"measurement": "stoichiometry N", "setting": "[1]", "result": 11, "unit": "subunits"}]}]}
